Measured values reported in patent publication EP4688860A2 (dated 2026).

B1: anti-CD38 scFv of SEQ ID NO:116 (scFv)
scFv: EVQLVESGGGVVRPGGSLRLSCAASGFTFDDYGMSWVRQAPGKGLEWVSGINWNGGSTDYAASVKGRFTISRDNAKNSLYLQMNSLRAEDTALYHCARVFCTNGVCYPYSYYYFMDVWGKGTTVTVSSGGGGSGGGGSGGGGSEIVMTQSPATLSVSPGERATLSCRASQSVSSNLAWYQQKPGQAPRLLTYGASTRATGIPARFSGSGSGTEFTLTISSLQSEDFAVYYCQQYNNWPYTFGQGTRLEIK
notes: One of the 12 selected scFvs; Also tested inside a CAR
B2: anti-CD38 scFv of SEQ ID NO:117 (scFv)
scFv: EVQLVESGGGVVRPGGSLRLSCAASGFTFDDYGMSWVRQAPGKGLEWVSGINWNGGSTGYADSVKGRFTISRDNAKNSLYLQMNSLRAEDTAFYHCAREGDGYKGTFYYYYYMDVWGKGTTVTVSSGGGGSGGGGSGGGGSDIQLTQSPSFLSASVGDRVTITCRASQGIFNYLAWYQQKPGKAPNLLIYAASNLQSGVPSRFSGSGSGTEFTLTISSLQPEDFATYYCQQLNSYPLTFGGGTKVEIK
notes: as for B1
B3: anti-CD38 scFv of SEQ ID NO:119 (scFv)
scFv: EVQLLESGGGLVQPGGSLRLSCAASGFTFSNYDMSWVRQAPGKGLEWVSTTSASGGNTYYADSVRGRFTISRDNSKNTLYLQMNSLRAEDTAVYYCAKEGDGYNPFRDHYYYFMDVWGKGTTVTVSSGGGGSGGGGSGGGGSETVMTQSPAALSVSPGERATLSCRASQSVSSNLAWYQQKPGQAPRLLIYGASTRATGIPARFSGSGSGTEFTLTISSLQSEDFAVYYCQQYNNWPPYTFGQGTKLEIK
notes: as for B1
B4: anti-CD38 scFv of SEQ ID NO:108 (scFv)
scFv: EVQLLESGGGLVQPGGSLRLSCAASGFTFSSYAMTWVRQAPGKGLEWVSAISPSGGSTFYADSVKGRFTISRDNSKNTLYLEMNSLRAEDTAVYYCAKDLDFYGSGSYSSWGKGTTVTVSSGGGGSGGGGSGGGGSEIVMTQSPATLSLSPGERATLSCRASQSVSNSYLSWYQQKPGQAPRLLIFGTSTRATGIPARFSGSGSGTDFTLTISSLQPEDFAVYHCQQDYKLPYTFGQGTKLEIK
notes: One of the 12 selected fully human scFvs; Also tested inside a CAR (CD8a hinge and transmembrane, OX40, CD3zeta; FLAG tag in Jurkat cells)
B5: anti-CD38 scFv of SEQ ID NO:109 (scFv)
scFv: EGQLLESGGGLVQPGGSLRLSCAASGFTFSSFAMSWVRQAPGKGLEWVSTISGSGGSTNYADSVKGRFTISRDNSKKTLYLQMSSLRAEDTAVFYCAKGPTSPYSYYMDVWGKGTTVTVSSGGGGSGGGGSGGGGSEIVMTQSPATLSLSPGERATLSCRASQSVSSSFLSWFQQKPGQAPRLLIYGASTRATGIPARFSGSGSGTDFTLTISSLQPEDFAVYYCQQDYNLPYTFGQGTKLEIK
notes: as for B1
B6: anti-CD38 scFv of SEQ ID NO:110 (scFv)
scFv: QVQLVQSGAEVKKPGASVKVSCKASGYTFNRYVISWVRQAPGQGLEWMGWIRAYNGNTNYAQKFQGRVTMTTDTSTSTAYMELRSLRSDDTAVYYCARDSTTGTTEGMDVWGKGTTVTVSSGGGGSGGGGSGGGGSEIVMTQSPATLSLSPGERATLSCRASQSVSSSYLSWYQQKPGQAPRLLIYGASTRATGIPARFSGSGSGTDFTLTISSLQPEDFAVYYCQQDYNLPLTFGGGTKVEIN
notes: as for B1
B7: anti-CD38 scFv of SEQ ID NO:111 (scFv)
scFv: EAQLLESGGDLVQPGGSLRLSCAASGFTFSSYAMSWVRQAPGKGLEWVSTISVSGDSTYYADSVKGRFTISRDNSKNTLYLQMNSLRAEDTAVYYCAKALLYQGLRMDVWGKGTTVTVSSGGGGSGGGGSGGGGSDIQMTQSPSSLSASVGDRVTITCRASQGIATWLAWYQQKPEKAPKSLIYAASSLQSGVPSRFSGSGSGTDFTLSISSLQPEDFATYYCQQYNSYPLTFGGGTKVEIK
notes: as for B1
B8: anti-CD38 scFv of SEQ ID NO:112 (scFv)
scFv: QVQLVQSGAEVKKPGASVKVSCKASGFTFTSYGFSWVRQAPGQGLEWMGWISAYSGNTKYAQKFQGRVTMTTDTSTSTAYMELRSLRSDDTAVYYCAREGGTTGTFYYYYYMDVWGKGTTVTVSSGGGGSGGGGSGGGGSEIVLTQSPDFQSVTPKEKVTITCRASQSIGRSLHWYQQKPDQSPKLLIKYASQSFSGVPSRFSGSGSGTDFTLTINSLEAEDAATYYCLQSSSLPLTFGGGTKVEIK
notes: as for B1

biological target: T1, human CD38 on cells (human CD38-overexpressing Jurkat cells); CD38-expressing MM.1R, THP-1 and MM.1S target … (human, UniProt P28907 1-300); assay: summing-up sentence of the examples (cell binding, SPR, CAR format)
T1 construct: also called CD38+ cells

Question: Does B1 bind?
Answer: binds

Question: Does B2 bind?
Answer: binds

Question: Does B3 bind?
Answer: binds

Question: Does B4 bind?
Answer: binds

Question: Does B5 bind?
Answer: binds

Question: Does B6 bind?
Answer: binds

Question: Does B7 bind?
Answer: binds

Question: Does B8 bind?
Answer: binds
